Experimental findings from paper PMC8748714 (2022) are described below.

B1: unnamed (parent)
chain 1: HSQGTFTSDYSKYLDSRRAQDFVQWLMNTKRNRNNIA
chain 2: RPQGATVSLWETVQKWREYRRQCQRSLTEDPPPATDLFCNRTFDEYACWPDGEPGSFVNVSCPWYLPWASSVPQGHVYRFCTAEGLWLQKDNSSLPWRDLSECEESKRGERSSPEEQLLFLYIIYTVGYALSFSALVIASAILLGFRHLHCTRNYIHLNLFASFILRALSVFIKDAALKWMYSTAAQQHQWDGLLSYQDSLSCRLVFLLMQYCVAANYYWLLVEGVYLYTLLAFSVLSEQWIFRLYVSIGWGVPLLFVVPWGIVKYLYEDEGCWTRNSNMNYWLIIRLPILFAIGVNFLIFVRVICIVVSKLKANLMCKTDIKCRLAKSTLTLIPLLGTHEVIFAFVMDEHARGTLRFIKLFTELSFTSFQGLMVAILYCFVNNEVQLEFRKSWERWRLEHLHIQRDSSMKPLKCPTSSLSSGATAGSSMYTATCQASCS

In the first experiment the parent is B1. Put plainly: radioligand competition binding on whole cells. Particulars: with partner chain of the complex shown;; read off a plot. A general note: Displacement assays read how much labelled ligand stays bound in the presence of the test substance.
With chain 2 R167A, the log10 ratio amounted to 0.1 pIC50 ΔWT. Consider chain 2 E341A, for which the log10 ratio came out at 0.3 pIC50 ΔWT. Same read-out and setting: as for chain 2 K174A, the figure is -1.9 pIC50 ΔWT.

For chain 2 N217A, the log10 ratio worked out at 0.3 pIC50 ΔWT.

On to chain 2 W274A, for which the log10 ratio was -0.4 pIC50 ΔWT.

A further experiment covers variants of B1. Nature of the experiment: radioligand competition binding on whole cells. The following applies: with partner chain of the complex shown;; read off a plot. This is another data set of the same source.
As to chain 2 E364A, the log10 ratio is -0.85 pIC50 ΔWT. Consider chain 2 W274A, for which the log10 ratio was -0.3 pIC50 ΔWT.
